{
  "source": "the Human Domainome abundance scans (Beltran et al. 2025)",
  "note": "± gives the uncertainty stated by the source.",
  "data": [
    {"experiment": "abundance fitness (aPCA) (normalised: wild type 0, dead -1); higher = more abundant; growth selection in yeast, the domain comes from the species named", "conditions": "Homo sapiens", "values": [
      {"substance": "Scaffold attachment factor B2 A40D, Q14151", "abundance fitness": "-0.409 ± 0.25"},
      {"substance": "Scaffold attachment factor B2 A40E, Q14151", "abundance fitness": "0.022 ± 0.097"},
      {"substance": "Scaffold attachment factor B2 A40G, Q14151", "abundance fitness": "-0.233 ± 0.1"},
      {"substance": "Scaffold attachment factor B2 A40L, Q14151", "abundance fitness": "-0.292 ± 0.12"},
      {"substance": "Scaffold attachment factor B2 A40M, Q14151", "abundance fitness": "0.613 ± 0.36"},
      {"substance": "Scaffold attachment factor B2 A40P, Q14151", "abundance fitness": "-0.433 ± 0.22"},
      {"substance": "Scaffold attachment factor B2 A40R, Q14151", "abundance fitness": "-0.368 ± 0.13"},
      {"substance": "Scaffold attachment factor B2 A40S, Q14151", "abundance fitness": "-0.168 ± 0.12"},
      {"substance": "Scaffold attachment factor B2 A40T, Q14151", "abundance fitness": "-0.561 ± 0.17"},
      {"substance": "Scaffold attachment factor B2 A40W, Q14151", "abundance fitness": "-0.135 ± 0.31"},
      {"substance": "Scaffold attachment factor B2 A40Y, Q14151", "abundance fitness": "-0.387 ± 0.11"},
      {"substance": "Scaffold attachment factor B2 A63C, Q14151", "abundance fitness": "-0.235 ± 0.19"},
      {"substance": "Scaffold attachment factor B2 A63E, Q14151", "abundance fitness": "-0.325 ± 0.12"},
      {"substance": "Scaffold attachment factor B2 A63F, Q14151", "abundance fitness": "-0.628 ± 0.18"},
      {"substance": "Scaffold attachment factor B2 A63G, Q14151", "abundance fitness": "-0.324 ± 0.083"},
      {"substance": "Scaffold attachment factor B2 A63I, Q14151", "abundance fitness": "-0.546 ± 0.16"},
      {"substance": "Scaffold attachment factor B2 A63K, Q14151", "abundance fitness": "-0.695 ± 0.15"},
      {"substance": "Scaffold attachment factor B2 A63L, Q14151", "abundance fitness": "-0.984 ± 0.16"},
      {"substance": "Scaffold attachment factor B2 A63M, Q14151", "abundance fitness": "-0.649 ± 0.13"},
      {"substance": "Scaffold attachment factor B2 A63P, Q14151", "abundance fitness": "-0.608 ± 0.13"},
      {"substance": "Scaffold attachment factor B2 A63Q, Q14151", "abundance fitness": "-0.292 ± 0.11"},
      {"substance": "Scaffold attachment factor B2 A63R, Q14151", "abundance fitness": "-0.433 ± 0.089"},
      {"substance": "Scaffold attachment factor B2 A63S, Q14151", "abundance fitness": "-0.367 ± 0.13"},
      {"substance": "Scaffold attachment factor B2 A63T, Q14151", "abundance fitness": "-0.44 ± 0.13"},
      {"substance": "Scaffold attachment factor B2 A63V, Q14151", "abundance fitness": "-0.175 ± 0.11"},
      {"substance": "Scaffold attachment factor B2 A63W, Q14151", "abundance fitness": "-0.63 ± 0.11"},
      {"substance": "Scaffold attachment factor B2 D37A, Q14151", "abundance fitness": "-0.513 ± 0.091"},
      {"substance": "Scaffold attachment factor B2 D37C, Q14151", "abundance fitness": "-0.548 ± 0.12"},
      {"substance": "Scaffold attachment factor B2 D37E, Q14151", "abundance fitness": "-0.012 ± 0.095"},
      {"substance": "Scaffold attachment factor B2 D37F, Q14151", "abundance fitness": "-0.737 ± 0.12"},
      {"substance": "Scaffold attachment factor B2 D37G, Q14151", "abundance fitness": "-0.602 ± 0.076"},
      {"substance": "Scaffold attachment factor B2 D37H, Q14151", "abundance fitness": "-0.865 ± 0.16"},
      {"substance": "Scaffold attachment factor B2 D37K, Q14151", "abundance fitness": "-1.19 ± 0.18"},
      {"substance": "Scaffold attachment factor B2 D37L, Q14151", "abundance fitness": "-0.9 ± 0.14"},
      {"substance": "Scaffold attachment factor B2 D37M, Q14151", "abundance fitness": "-1 ± 0.21"},
      {"substance": "Scaffold attachment factor B2 D37N, Q14151", "abundance fitness": "-0.883 ± 0.23"},
      {"substance": "Scaffold attachment factor B2 D37P, Q14151", "abundance fitness": "-0.463 ± 0.14"},
      {"substance": "Scaffold attachment factor B2 D37Q, Q14151", "abundance fitness": "-0.514 ± 0.11"},
      {"substance": "Scaffold attachment factor B2 D37R, Q14151", "abundance fitness": "-1.05 ± 0.083"},
      {"substance": "Scaffold attachment factor B2 D37S, Q14151", "abundance fitness": "-0.556 ± 0.1"},
      {"substance": "Scaffold attachment factor B2 D37T, Q14151", "abundance fitness": "-0.597 ± 0.089"},
      {"substance": "Scaffold attachment factor B2 D37V, Q14151", "abundance fitness": "-0.651 ± 0.088"},
      {"substance": "Scaffold attachment factor B2 D37W, Q14151", "abundance fitness": "-0.495 ± 0.086"},
      {"substance": "Scaffold attachment factor B2 D37Y, Q14151", "abundance fitness": "-0.797 ± 0.16"},
      {"substance": "Scaffold attachment factor B2 D48A, Q14151", "abundance fitness": "-0.181 ± 0.085"},
      {"substance": "Scaffold attachment factor B2 D48C, Q14151", "abundance fitness": "-0.188 ± 0.11"},
      {"substance": "Scaffold attachment factor B2 D48F, Q14151", "abundance fitness": "-0.338 ± 0.36"},
      {"substance": "Scaffold attachment factor B2 D48G, Q14151", "abundance fitness": "-0.284 ± 0.077"},
      {"substance": "Scaffold attachment factor B2 D48I, Q14151", "abundance fitness": "-0.555 ± 0.13"},
      {"substance": "Scaffold attachment factor B2 D48K, Q14151", "abundance fitness": "-0.358 ± 0.084"},
      {"substance": "Scaffold attachment factor B2 D48L, Q14151", "abundance fitness": "-0.513 ± 0.094"},
      {"substance": "Scaffold attachment factor B2 D48M, Q14151", "abundance fitness": "-0.545 ± 0.14"},
      {"substance": "Scaffold attachment factor B2 D48P, Q14151", "abundance fitness": "0.03 ± 0.089"},
      {"substance": "Scaffold attachment factor B2 D48Q, Q14151", "abundance fitness": "-0.329 ± 0.11"},
      {"substance": "Scaffold attachment factor B2 D48R, Q14151", "abundance fitness": "-0.625 ± 0.082"},
      {"substance": "Scaffold attachment factor B2 D48S, Q14151", "abundance fitness": "-0.214 ± 0.086"},
      {"substance": "Scaffold attachment factor B2 D48T, Q14151", "abundance fitness": "-0.526 ± 0.083"},
      {"substance": "Scaffold attachment factor B2 D48W, Q14151", "abundance fitness": "-0.757 ± 0.087"},
      {"substance": "Scaffold attachment factor B2 D48Y, Q14151", "abundance fitness": "-0.744 ± 0.14"},
      {"substance": "Scaffold attachment factor B2 D70A, Q14151", "abundance fitness": "0.141 ± 0.14"},
      {"substance": "Scaffold attachment factor B2 D70C, Q14151", "abundance fitness": "-0.037 ± 0.12"},
      {"substance": "Scaffold attachment factor B2 D70E, Q14151", "abundance fitness": "0.125 ± 0.12"},
      {"substance": "Scaffold attachment factor B2 D70F, Q14151", "abundance fitness": "-0.431 ± 0.15"},
      {"substance": "Scaffold attachment factor B2 D70G, Q14151", "abundance fitness": "-0.036 ± 0.11"},
      {"substance": "Scaffold attachment factor B2 D70H, Q14151", "abundance fitness": "-0.197 ± 0.13"},
      {"substance": "Scaffold attachment factor B2 D70I, Q14151", "abundance fitness": "-0.258 ± 0.17"},
      {"substance": "Scaffold attachment factor B2 D70K, Q14151", "abundance fitness": "-0.337 ± 0.29"},
      {"substance": "Scaffold attachment factor B2 D70P, Q14151", "abundance fitness": "0.014 ± 0.13"},
      {"substance": "Scaffold attachment factor B2 D70S, Q14151", "abundance fitness": "-0.094 ± 0.15"},
      {"substance": "Scaffold attachment factor B2 D70V, Q14151", "abundance fitness": "-0.283 ± 0.14"},
      {"substance": "Scaffold attachment factor B2 D70W, Q14151", "abundance fitness": "-0.576 ± 0.16"},
      {"substance": "Scaffold attachment factor B2 E32A, Q14151", "abundance fitness": "-0.445 ± 0.11"},
      {"substance": "Scaffold attachment factor B2 E32C, Q14151", "abundance fitness": "-0.33 ± 0.12"},
      {"substance": "Scaffold attachment factor B2 E32D, Q14151", "abundance fitness": "0.003 ± 0.1"},
      {"substance": "Scaffold attachment factor B2 E32F, Q14151", "abundance fitness": "-0.873 ± 0.27"},
      {"substance": "Scaffold attachment factor B2 E32H, Q14151", "abundance fitness": "-0.52 ± 0.23"},
      {"substance": "Scaffold attachment factor B2 E32I, Q14151", "abundance fitness": "-0.657 ± 0.14"},
      {"substance": "Scaffold attachment factor B2 E32K, Q14151", "abundance fitness": "-0.355 ± 0.23"},
      {"substance": "Scaffold attachment factor B2 E32L, Q14151", "abundance fitness": "-0.543 ± 0.1"},
      {"substance": "Scaffold attachment factor B2 E32M, Q14151", "abundance fitness": "-0.554 ± 0.093"},
      {"substance": "Scaffold attachment factor B2 E32N, Q14151", "abundance fitness": "0.078 ± 0.35"},
      {"substance": "Scaffold attachment factor B2 E32P, Q14151", "abundance fitness": "-0.474 ± 0.12"},
      {"substance": "Scaffold attachment factor B2 E32Q, Q14151", "abundance fitness": "-0.135 ± 0.087"},
      {"substance": "Scaffold attachment factor B2 E32R, Q14151", "abundance fitness": "-0.431 ± 0.087"},
      {"substance": "Scaffold attachment factor B2 E32S, Q14151", "abundance fitness": "-0.36 ± 0.093"},
      {"substance": "Scaffold attachment factor B2 E32T, Q14151", "abundance fitness": "-0.07 ± 0.13"},
      {"substance": "Scaffold attachment factor B2 E32V, Q14151", "abundance fitness": "-0.393 ± 0.077"},
      {"substance": "Scaffold attachment factor B2 E32W, Q14151", "abundance fitness": "-0.621 ± 0.09"},
      {"substance": "Scaffold attachment factor B2 E41L, Q14151", "abundance fitness": "-0.876 ± 0.35"},
      {"substance": "Scaffold attachment factor B2 E41R, Q14151", "abundance fitness": "-1.09 ± 0.38"},
      {"substance": "Scaffold attachment factor B2 E41W, Q14151", "abundance fitness": "-1.02 ± 0.23"},
      {"substance": "Scaffold attachment factor B2 E58A, Q14151", "abundance fitness": "-0.129 ± 0.085"},
      {"substance": "Scaffold attachment factor B2 E58C, Q14151", "abundance fitness": "-0.364 ± 0.12"},
      {"substance": "Scaffold attachment factor B2 E58D, Q14151", "abundance fitness": "0.001 ± 0.12"},
      {"substance": "Scaffold attachment factor B2 E58F, Q14151", "abundance fitness": "-0.769 ± 0.11"},
      {"substance": "Scaffold attachment factor B2 E58G, Q14151", "abundance fitness": "-0.26 ± 0.077"},
      {"substance": "Scaffold attachment factor B2 E58H, Q14151", "abundance fitness": "-0.338 ± 0.15"},
      {"substance": "Scaffold attachment factor B2 E58I, Q14151", "abundance fitness": "-0.576 ± 0.11"},
      {"substance": "Scaffold attachment factor B2 E58K, Q14151", "abundance fitness": "-0.44 ± 0.17"},
      {"substance": "Scaffold attachment factor B2 E58L, Q14151", "abundance fitness": "-0.439 ± 0.077"},
      {"substance": "Scaffold attachment factor B2 E58M, Q14151", "abundance fitness": "-0.162 ± 0.11"},
      {"substance": "Scaffold attachment factor B2 E58N, Q14151", "abundance fitness": "-0.201 ± 0.099"},
      {"substance": "Scaffold attachment factor B2 E58P, Q14151", "abundance fitness": "-0.612 ± 0.09"},
      {"substance": "Scaffold attachment factor B2 E58Q, Q14151", "abundance fitness": "-0.319 ± 0.11"},
      {"substance": "Scaffold attachment factor B2 E58R, Q14151", "abundance fitness": "-0.247 ± 0.072"},
      {"substance": "Scaffold attachment factor B2 E58T, Q14151", "abundance fitness": "-0.203 ± 0.091"},
      {"substance": "Scaffold attachment factor B2 E58V, Q14151", "abundance fitness": "-0.616 ± 0.076"},
      {"substance": "Scaffold attachment factor B2 E66A, Q14151", "abundance fitness": "-0.092 ± 0.091"},
      {"substance": "Scaffold attachment factor B2 E66C, Q14151", "abundance fitness": "-0.157 ± 0.13"},
      {"substance": "Scaffold attachment factor B2 E66D, Q14151", "abundance fitness": "-0.042 ± 0.13"}
    ]}
  ]
}
